{"source": "patent US20250152730A1", "about": "“ANTI-TM4SF1 ANTIBODY-DRUG CONJUGATES COMPRISING CLEAVABLE LINKERS AND METHODS OF USING SAME” (Angiex, Inc., priority 2022, published 2025)", "key": {"[1]": {"tested_on": "HUVEC (endothelial cell)", "assay": "In vitro cell proliferation inhibition (killing) assay, HUVEC", "assay_type": "cell-based, human", "details": "5 days incubation", "protocol": "Cells are incubated with antibody conjugate at various concentrations. The concentrations evaluated include a control, and five-fold dilution starting from 333.335 nM (333.335 nM, 66.667 nM, 13.334 nM, 2.667 nM, 0.533 nM (533.3360 pM), 106.6672 pM, 21.3334 pM, 4.2667 pM. Briefly, cells are seeded into 96-well plates a day before the antibody conjugates are added, whereupon cell viability is measured by PrestoBlue (ThermoFisher Scientific) through a plate reader (Varioskan™ LUX multimode microplate reader) five days after treatment with serial dilutions of the antibody conjugates. Cells are treated with media only or isotype matched control antibodies, as a negative control. The EC50 values are generated via GraphPad.\nThe effects of antibody drug-conjugates (drug to antibody ratio (DAR) varying from 1.8 to 4.2) containing a drug (maytansine) were assessed in cultured mouse (MS1) and human (HUVEC, A549, MiaPaCa2 and SKOV3) cells. Characteristics of the Exemplary Antibodies 1-5, each of which contains human IgG1 constant region with YTEC mutation, can be found in Table 3A. Cells were incubated for 5 days with the antibody drug conjugate before assessing cell viability on day 5."}, "[2]": {"details": "in vivo; cited from earlier work"}, "[3]": {"details": "metabolite of trastuzumab emtansine (Kadcyla); every 2 weeks; cited from earlier work"}, "[4]": {"target": "T1, human TM4SF1 (transmembrane-4 L six family member-1) on HUVEC cells (UniProt P30408 1-202)", "T1 chain": "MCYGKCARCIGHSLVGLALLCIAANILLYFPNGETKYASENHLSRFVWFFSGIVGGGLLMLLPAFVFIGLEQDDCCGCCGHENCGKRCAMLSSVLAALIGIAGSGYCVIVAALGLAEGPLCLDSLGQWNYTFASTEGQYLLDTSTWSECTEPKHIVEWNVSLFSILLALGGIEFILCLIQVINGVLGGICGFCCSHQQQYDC", "assay": "flow cytometry cell binding; HUVEC cells"}, "[5]": {"assay": "Hydrophobicity by hydrophobic interaction chromatography (HIC)", "assay_type": "physicochemical", "parameters": "unit not given here", "details": "for Hydrophobicity (HIC), Average: average of 3 runs", "protocol": "The hydrophobicity of exemplary anti-TM4SF1 antibodies, and their Fc mutation containing variants were assessed in this study, using hydrophobic interaction chromatography. The tested antibodies were AGX-A07 (the “wt,” “C,” and “YTEC”); MS (the “wt,” “C,” and “YTEC”). An anti-Her2 antibody with an Fc mutation was used as a control. Both in case of AGX-A07 and the murine surrogate anti-TM4SF1 antibody, it was observed that the hydrophobicity increased with the “C” and “YTEC” mutations."}}, "data": [{"molecule": "BrAc-Galactose-Sar-N-Me-Alanine-DM1 [Free LP]", "values": [{"measurement": "EC50", "setting": "[1]", "value": 906, "unit": "nM"}]}, {"molecule": "COc1ccc(/C=C\\c2cc(OC)c(OC)c(OC)c2)cc1OP(=O)(O)O", "note": "[CA4P, Combretastatin]", "values": [{"measurement": "Patients who experienced heart attacks while being treated", "setting": "[2]", "value": "seven"}]}, {"molecule": "COc1cc2cc(c1Cl)N(C)C(=O)CC(O)C1(C)OC1C(C)C1CC(O)(NC(=O)O1)C(OC)/C=C/C=C(\\C)C2", "note": "(stereo not drawn) [Maytansinol, maytansinol]", "values": [{"measurement": "Found in plasma", "setting": "[3]", "value": 7, "unit": "%"}]}, {"molecule": "AGX-A07 variant comprising Fc region mutation N297C (antibody, V domains shown) VH: QIQLVQSGPELKKPGETVKISCKASGYTFTNYGVKWVKQAPGKDLKWMGWINTYTGNPIYAADFKGRFAFSLETSASTAFLQINNLKNEDTATYFCVRFQYGDYRYFDVWGAGTTVTVSS VL: QIILSQSPAILSASPGEKVTMTCRANSGISFINWYQQKPGSSPKPWIYGTANLASGVPARFGGSGSGTSYSLTISRVEAEDAATYYCQQWSSNPLTFGAGTKLELR", "values": [{"measurement": "EC50", "setting": "[4]", "value": 2.3, "unit": "nM"}]}, {"molecule": "A07C: AGX-A07 anti-TM4SF1 antibody with Fc region mutation N297C (the “C” variant) (antibody, V domains shown) VH: QIQLVQSGPELKKPGETVKISCKASGYTFTNYGVKWVKQAPGKDLKWMGWINTYTGNPIYAADFKGRFAFSLETSASTAFLQINNLKNEDTATYFCVRFQYGDYRYFDVWGAGTTVTVSS VL: QIILSQSPAILSASPGEKVTMTCRANSGISFINWYQQKPGSSPKPWIYGTANLASGVPARFGGSGSGTSYSLTISRVEAEDAATYYCQQWSSNPLTFGAGTKLELR", "values": [{"measurement": "Hydrophobicity (HIC), Run 1", "setting": "[5]", "value": 5.614}, {"measurement": "Hydrophobicity (HIC), Run 2", "setting": "[5]", "value": 5.591}, {"measurement": "Hydrophobicity (HIC), Run 3", "setting": "[5]", "value": 5.606}, {"measurement": "Hydrophobicity (HIC), Average", "setting": "[5]", "value": 5.60}]}, {"molecule": "AGX-A07 anti-TM4SF1 antibody (without Fc region mutations) (antibody, V domains shown) VH: QIQLVQSGPELKKPGETVKISCKASGYTFTNYGVKWVKQAPGKDLKWMGWINTYTGNPIYAADFKGRFAFSLETSASTAFLQINNLKNEDTATYFCVRFQYGDYRYFDVWGAGTTVTVSS VL: QIILSQSPAILSASPGEKVTMTCRANSGISFINWYQQKPGSSPKPWIYGTANLASGVPARFGGSGSGTSYSLTISRVEAEDAATYYCQQWSSNPLTFGAGTKLELR", "values": [{"measurement": "EC50", "setting": "[4]", "value": 2.16, "unit": "nM"}]}, {"molecule": "AGX-A07 variant comprising Fc region mutations N297C, M252Y, S254T and T256E (antibody, V domains shown) VH: QIQLVQSGPELKKPGETVKISCKASGYTFTNYGVKWVKQAPGKDLKWMGWINTYTGNPIYAADFKGRFAFSLETSASTAFLQINNLKNEDTATYFCVRFQYGDYRYFDVWGAGTTVTVSS VL: QIILSQSPAILSASPGEKVTMTCRANSGISFINWYQQKPGSSPKPWIYGTANLASGVPARFGGSGSGTSYSLTISRVEAEDAATYYCQQWSSNPLTFGAGTKLELR", "values": [{"measurement": "EC50", "setting": "[4]", "value": 1.75, "unit": "nM"}]}, {"molecule": "A07-YTEC: AGX-A07 with N297C in combination with M252Y, S254T, and T256E (the “YTEC” variant) (antibody, V domains shown) VH: QIQLVQSGPELKKPGETVKISCKASGYTFTNYGVKWVKQAPGKDLKWMGWINTYTGNPIYAADFKGRFAFSLETSASTAFLQINNLKNEDTATYFCVRFQYGDYRYFDVWGAGTTVTVSS VL: QIILSQSPAILSASPGEKVTMTCRANSGISFINWYQQKPGSSPKPWIYGTANLASGVPARFGGSGSGTSYSLTISRVEAEDAATYYCQQWSSNPLTFGAGTKLELR", "values": [{"measurement": "Hydrophobicity (HIC), Run 1", "setting": "[5]", "value": 5.781}, {"measurement": "Hydrophobicity (HIC), Run 2", "setting": "[5]", "value": 5.77}, {"measurement": "Hydrophobicity (HIC), Run 3", "setting": "[5]", "value": 5.888}, {"measurement": "Hydrophobicity (HIC), Average", "setting": "[5]", "value": 5.81}]}, {"molecule": "A07-wt: AGX-A07 anti-TM4SF1 antibody without Fc region mutations (antibody, V domains shown) VH: QIQLVQSGPELKKPGETVKISCKASGYTFTNYGVKWVKQAPGKDLKWMGWINTYTGNPIYAADFKGRFAFSLETSASTAFLQINNLKNEDTATYFCVRFQYGDYRYFDVWGAGTTVTVSS VL: QIILSQSPAILSASPGEKVTMTCRANSGISFINWYQQKPGSSPKPWIYGTANLASGVPARFGGSGSGTSYSLTISRVEAEDAATYYCQQWSSNPLTFGAGTKLELR", "values": [{"measurement": "Hydrophobicity (HIC), Run 1", "setting": "[5]", "value": 5.547}, {"measurement": "Hydrophobicity (HIC), Run 2", "setting": "[5]", "value": 5.523}, {"measurement": "Hydrophobicity (HIC), Run 3", "setting": "[5]", "value": 5.568}, {"measurement": "Hydrophobicity (HIC), Average", "setting": "[5]", "value": 5.55}]}]}
